Numbering of substitutions follows the chain as printed.
T1: Tau409-426 pS422 peptide (human)
T1 chain: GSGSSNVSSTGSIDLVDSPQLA

B1: V0004 (antibody, V domains shown)
VH: QVQLQQPGAELVKPGASVKLSCKASDYTFTNYWMHWVKQRPGRGLEWIGRIDPNSGGTRYNEKFKNKATLTVDKPSSTAYMHLSSLTSEDSAVYYCAGDFDVWGTGTTVTVSS
VL: DIQMTQSPASLSASVGETVTITCRASGNIHNYLAWYQQRQGKSPQLLVYNAKTLPDGVPSRFSGSGSGTQYSLKINSLQPEDFGSYCCQHFWSTPLTFGAGTKLELK
modifications: enriched paired helical filament tau, hyperphosphorylated
B2: V0023 (antibody, V domains shown)
VH: QVQLQQPGTELVKPGASVKLSCKASGYTFTIFWMHWVKQRPGHGLEWIGKINPNNGGGDYNEKFKSKATLTVDKSSTTAYLQLSSLTSEDSAVYYCARGTGTGAMDYWGQGTSVTVSS
VL: DVVMTQTPLSLPVSLGDHASISCRSSQSLVHSNGITHLYWYLQRPGQTPKLLIYRVSNRFSGVPDRFSGSGSGTDFTLKISSVEAEDLGVYFCFQGTHVPRTFGGGTKLEIE
modifications: enriched paired helical filament tau, hyperphosphorylated
B3: V0022 (antibody, V domains shown)
VH: QVQLQQPGTELVKPGSSVNLSCKASGFTFTRYWMHWVKERPGHGLEWIGNINPNNGGTDFNEKFKNKATLTVHKSSTTVFIQLSSLTSEDSAVYYCARGTGTGAMDYWGQGTSVTVSS
VL: B2 VL with H18Q, S32N, H37Y, R44K, T48S, S68G, S82R, E112K
modifications: enriched paired helical filament tau, hyperphosphorylated
B4: V0024 (antibody, V domains shown)
VH: B2 VH with I31R, H43Q, K50N, G58T, Y60N, K63R, K74R, T77S, L81M
VL: B2 VL with H18Q, I35N, R44K, T48S, N58S, S82R, E112K
modifications: enriched paired helical filament tau, hyperphosphorylated
B5: V0009 (antibody, V domains shown)
VH: EVQLVESGGALVQPGGSLSLSCAASGFTFTDYYMSWVRQPPGKALEWLALIRNKAKGFTTEYSASVKGRFTISRDNSQSILLFQMNDLRADDSATYYCVRDINYWGQGTTLTVSS
VL: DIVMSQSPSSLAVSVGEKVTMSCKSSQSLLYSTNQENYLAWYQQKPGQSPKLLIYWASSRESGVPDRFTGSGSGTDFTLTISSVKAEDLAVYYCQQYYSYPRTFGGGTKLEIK
modifications: enriched paired helical filament tau, hyperphosphorylated
B6: V0024 (antibody, V domains shown)
VH: B2 VH with I31R, H43Q, K50N, G58T, Y60N, K63R, K74R, T77S, L81M
VL: B2 VL with H18Q, I35N, R44K, T48S, N58S, S82R, E112K
modifications: immunopurified paired helical filament tau, hyperphosphorylated
B7: Ab3 (antibody, V domains shown)
VH: EVQLVQSGAEVKKPGSSVKVSCKASGFTFTRYWMHWVKERPGHGLEWIGNINPNNGGTDFNEKFKNRVTMTVHKSITTAYMELSRLTSDDSAVYYCARGTGTGAMDYWGQGTLVSVSS
VL: DVVMTQSPLSLPVTLGQPASISCRSSQSLVHNNGITYLYWYQQRPGQSPRLLIYRVSNRFSGVPDRFSGSGSGTDFTLKISRVEAEDVGVYYCFQGTHVPRTFGQGTKLEIK
modifications: non-phosphorylated recombinant tau
B8: Ab8 (antibody, V domains shown)
VH: QVQLVQSGAEVKKSGASVKVSCKASGFTFTRYWMHWVRQAPGQGLEWIGNINPNNGGTDFNEKFKNRVTLIRDTSTTTVFIQLTSLTSEDSAVYYCARGTGTGAMDYWGQGTLVTVSS
VL: B7 VL
modifications: non-phosphorylated recombinant tau
B9: Ab4 (antibody, V domains shown)
VH: QVQLVQSGAEVKKPGASVKVSCKASGFTFTRYWMHWVKERPGQGLEWMGNINPNNGGTDFNEKFKNRVTMTVHKSTSTVFIQLSSLRSEDTAVYYCARGTGTGAMDYWGQGTSVTVSS
VL: B7 VL with V2I, P12S, L15P, Q42L, R44K, R50Q, L109V
modifications: non-phosphorylated recombinant tau
B10: Ab9 (antibody, V domains shown)
VH: B7 VH
VL: B7 VL with V2I, P12S, L15P, Q42L, R44K, R50Q, L109V
modifications: non-phosphorylated recombinant tau
B11: Ab7 (antibody, V domains shown)
VH: B7 VH with E1Q, S16A, K38R, T77S, R85S, T87R, S115T
VL: B7 VL
modifications: non-phosphorylated recombinant tau
B12: Ab2 (antibody, V domains shown)
VH: B9 VH with Q6E, Q43H, M70I, T76A, V79A, F80Y, I81M, Q82E, S113T
VL: B7 VL
modifications: non-phosphorylated recombinant tau
B13: Ab6 (antibody, V domains shown)
VH: B9 VH with Q6E, Q43H, M70I, T76A, V79A, F80Y, I81M, Q82E, S113T
VL: B7 VL with V2I, P12S, L15P, Q42L, R44K, R50Q, L109V
modifications: non-phosphorylated recombinant tau
B14: Ab10 (antibody, V domains shown)
VH: B7 VH
VL: B7 VL with V2I, S7T, L11S, S48P, S72A, S81N, Y92F
modifications: non-phosphorylated recombinant tau
B15: Ab1 (antibody, V domains shown)
VH: B8 VH
VL: B7 VL with V2I, P12S, L15P, Q42L, R44K, R50Q, L109V
modifications: non-phosphorylated recombinant tau
B16: Ab11 (antibody, V domains shown)
VH: B9 VH
VL: B7 VL
modifications: non-phosphorylated recombinant tau
B17: Ab5 (antibody, V domains shown)
VH: B9 VH
VL: B7 VL with V2I, S7T, L11S, S48P, S72A, S81N, Y92F
modifications: non-phosphorylated recombinant tau
B18: V0004 (antibody, V domains shown)
VH: B1 VH
VL: B1 VL
modifications: immunopurified paired helical filament tau, hyperphosphorylated
B19: Ab4 (antibody, V domains shown)
VH: B9 VH
VL: B7 VL with V2I, P12S, L15P, Q42L, R44K, R50Q, L109V
modifications: enriched paired helical filament tau, hyperphosphorylated
B20: Ab10 (antibody, V domains shown)
VH: B7 VH
VL: B7 VL with V2I, S7T, L11S, S48P, S72A, S81N, Y92F
B21: Ab7 (antibody, V domains shown)
VH: B7 VH with E1Q, S16A, K38R, T77S, R85S, T87R, S115T
VL: B7 VL
B22: Ab1 (antibody, V domains shown)
VH: B8 VH
VL: B7 VL with V2I, P12S, L15P, Q42L, R44K, R50Q, L109V
B23: Ab11 (antibody, V domains shown)
VH: B9 VH
VL: B7 VL
B24: Ab4 (antibody, V domains shown)
VH: B9 VH
VL: B7 VL with V2I, P12S, L15P, Q42L, R44K, R50Q, L109V
B25: Ab5 (antibody, V domains shown)
VH: B9 VH
VL: B7 VL with V2I, S7T, L11S, S48P, S72A, S81N, Y92F
B26: Ab3 (antibody, V domains shown)
VH: B7 VH
VL: B7 VL
B27: Ab8 (antibody, V domains shown)
VH: B8 VH
VL: B7 VL
B28: Ab2 (antibody, V domains shown)
VH: B9 VH with Q6E, Q43H, M70I, T76A, V79A, F80Y, I81M, Q82E, S113T
VL: B7 VL
B29: Ab9 (antibody, V domains shown)
VH: B7 VH
VL: B7 VL with V2I, P12S, L15P, Q42L, R44K, R50Q, L109V
B30: Ab6 (antibody, V domains shown)
VH: B9 VH with Q6E, Q43H, M70I, T76A, V79A, F80Y, I81M, Q82E, S113T
VL: B7 VL with V2I, P12S, L15P, Q42L, R44K, R50Q, L109V

target: T2, ePHF (human, UniProt P10636); test: ELISA
T2 sequence (P10636 2-758): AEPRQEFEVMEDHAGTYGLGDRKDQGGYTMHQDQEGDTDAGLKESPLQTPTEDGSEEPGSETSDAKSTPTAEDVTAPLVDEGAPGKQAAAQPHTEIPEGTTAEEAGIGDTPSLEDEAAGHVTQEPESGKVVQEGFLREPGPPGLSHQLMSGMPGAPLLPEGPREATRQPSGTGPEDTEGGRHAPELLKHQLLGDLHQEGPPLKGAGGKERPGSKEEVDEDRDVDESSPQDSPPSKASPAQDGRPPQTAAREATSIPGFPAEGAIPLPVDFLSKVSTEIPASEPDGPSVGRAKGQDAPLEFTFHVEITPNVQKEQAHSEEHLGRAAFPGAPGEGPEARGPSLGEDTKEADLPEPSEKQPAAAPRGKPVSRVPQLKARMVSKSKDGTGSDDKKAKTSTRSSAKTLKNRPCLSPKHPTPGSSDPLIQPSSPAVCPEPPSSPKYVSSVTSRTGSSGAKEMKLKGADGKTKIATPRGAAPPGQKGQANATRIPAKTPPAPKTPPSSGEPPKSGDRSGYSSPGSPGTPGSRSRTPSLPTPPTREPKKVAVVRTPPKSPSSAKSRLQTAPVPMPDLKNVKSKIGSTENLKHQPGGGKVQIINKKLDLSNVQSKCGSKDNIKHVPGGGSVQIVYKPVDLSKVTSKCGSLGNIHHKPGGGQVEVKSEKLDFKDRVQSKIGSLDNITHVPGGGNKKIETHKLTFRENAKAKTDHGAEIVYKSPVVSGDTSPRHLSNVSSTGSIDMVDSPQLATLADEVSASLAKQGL

Row | EC50 [nM] | Binder
1 | 0.083 | B1
2 | 0.11 | B2
3 | 0.07 | B3
4 | 0.125 | B4
5 | 0.038 | B5

target: T3, iPHF (human, UniProt P10636); test: SPR
T3 sequence (P10636 2-758): as above

Row | Kd [nM] | Binder
6 | 0.124 | B6

target: wild type tau (human); test: ELISA
Sequence (P10636 other isoform, or with tags, fused parts or gaps): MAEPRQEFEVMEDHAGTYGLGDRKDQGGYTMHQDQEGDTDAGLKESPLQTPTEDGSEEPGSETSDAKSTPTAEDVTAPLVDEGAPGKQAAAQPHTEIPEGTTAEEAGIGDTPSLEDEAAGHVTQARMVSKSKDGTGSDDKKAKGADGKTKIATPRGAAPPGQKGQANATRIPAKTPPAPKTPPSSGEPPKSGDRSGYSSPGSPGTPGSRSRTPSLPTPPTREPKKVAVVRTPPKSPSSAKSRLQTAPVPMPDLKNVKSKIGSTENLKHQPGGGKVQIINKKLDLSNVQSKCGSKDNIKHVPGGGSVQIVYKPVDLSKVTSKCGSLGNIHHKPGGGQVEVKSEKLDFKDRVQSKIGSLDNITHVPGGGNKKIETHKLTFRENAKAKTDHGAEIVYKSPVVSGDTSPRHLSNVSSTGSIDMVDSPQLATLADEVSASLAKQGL

Row | binding result | Binder
7 | no binding | B7
8 | no binding | B8
9 | no binding | B9
10 | no binding | B10
11 | no binding | B11
12 | no binding | B12
13 | no binding | B13
14 | no binding | B14
15 | no binding | B15
16 | no binding | B16
17 | no binding | B17

target: T3, iPHF; test: BLI

Row | Kd [nM] | Binder
18 | 20 | B18
19 | 2.8 | B6

target: T2, ePHF; test: ELISA; remark: another data set of the same source

Row | EC50 [nM] | Binder
20 | 0.18 | B19

Target: T1, Tau409-426 pS422 peptide
Test: SPR

Row | Kd [nM] | Binder
21 | 0.0436 | B20
22 | 0.0398 | B21
23 | 0.0408 | B22
24 | 0.0403 | B23
25 | 0.0361 | B24
26 | 0.0294 | B25
27 | 0.0457 | B26
28 | 0.0533 | B27
29 | 0.0386 | B28
30 | 0.0763 | B29
31 | 0.0398 | B30

From patent publication US20260356924 (published 2026)
